These are literature values, as cited in PMC7490560.

For orientation: Kd means the equilibrium constant for the complex coming apart.

The data set has as its target KEAP1 (Homo sapiens) (UniProt Q14145).

Where “and” joins values, the source holds several entries; their conditions need not be identical. Equal entries are not always repeated.

Sequence of KEAP1 (Homo sapiens) (Q14145 whole entry): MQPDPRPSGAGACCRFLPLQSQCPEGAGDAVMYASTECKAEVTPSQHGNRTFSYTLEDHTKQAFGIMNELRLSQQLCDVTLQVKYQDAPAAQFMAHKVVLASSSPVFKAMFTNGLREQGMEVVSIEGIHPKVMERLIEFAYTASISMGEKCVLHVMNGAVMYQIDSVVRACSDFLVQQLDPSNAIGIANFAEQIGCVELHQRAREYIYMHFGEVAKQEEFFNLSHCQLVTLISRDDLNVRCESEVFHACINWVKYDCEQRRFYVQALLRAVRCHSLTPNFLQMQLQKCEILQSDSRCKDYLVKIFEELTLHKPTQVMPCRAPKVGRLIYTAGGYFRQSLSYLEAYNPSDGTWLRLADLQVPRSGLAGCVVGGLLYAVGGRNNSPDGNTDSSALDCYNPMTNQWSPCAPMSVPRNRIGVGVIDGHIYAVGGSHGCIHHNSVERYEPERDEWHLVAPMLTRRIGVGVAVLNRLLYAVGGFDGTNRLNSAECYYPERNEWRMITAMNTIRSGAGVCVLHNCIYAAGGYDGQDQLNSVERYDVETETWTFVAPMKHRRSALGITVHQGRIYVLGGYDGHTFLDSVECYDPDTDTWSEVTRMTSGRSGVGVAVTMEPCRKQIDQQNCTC
Sequence of NRF2 (Q16236 whole entry): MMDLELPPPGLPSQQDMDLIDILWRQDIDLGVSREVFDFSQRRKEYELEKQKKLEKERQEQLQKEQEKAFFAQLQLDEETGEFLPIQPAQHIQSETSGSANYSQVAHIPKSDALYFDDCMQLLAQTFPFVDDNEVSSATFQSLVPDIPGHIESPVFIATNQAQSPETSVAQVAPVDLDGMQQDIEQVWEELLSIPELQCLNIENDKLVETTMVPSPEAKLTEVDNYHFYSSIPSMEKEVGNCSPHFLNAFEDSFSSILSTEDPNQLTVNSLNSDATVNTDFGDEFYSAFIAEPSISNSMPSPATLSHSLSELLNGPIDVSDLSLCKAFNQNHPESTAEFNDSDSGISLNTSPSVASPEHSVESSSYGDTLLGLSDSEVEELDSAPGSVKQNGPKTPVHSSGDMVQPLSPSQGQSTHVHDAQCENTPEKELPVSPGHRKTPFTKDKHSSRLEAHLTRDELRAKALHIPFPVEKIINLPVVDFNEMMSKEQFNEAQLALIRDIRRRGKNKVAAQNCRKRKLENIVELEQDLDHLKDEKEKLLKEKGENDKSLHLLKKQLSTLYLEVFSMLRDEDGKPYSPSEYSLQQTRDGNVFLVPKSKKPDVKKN

With NRF2 (from UniProt Q16236), the Kd is 580 nM and 167 nM.
